How the values were obtained:
[1] = target: the molecule itself; assay: LC-MS; LC-MS of the heat-treated PBD46 sample; major species at 10.23 kDa
[2] = target: T1, Cdc42 labelled with the extrinsic fluorophore sNBD (UniProt P60953 1-191, sNBD fluorophore (site not stated)); assay: other fluorescence titration; Cdc42 labelled with the extrinsic fluorophore sNBD, PBD46 titrated; heat-purified and conventional PBD46 compared; details: both partners purified
T1 construct: Cdc42, small GTPase; also called sNBD-labeled Cdc42
T1 sequence (P60953 whole entry): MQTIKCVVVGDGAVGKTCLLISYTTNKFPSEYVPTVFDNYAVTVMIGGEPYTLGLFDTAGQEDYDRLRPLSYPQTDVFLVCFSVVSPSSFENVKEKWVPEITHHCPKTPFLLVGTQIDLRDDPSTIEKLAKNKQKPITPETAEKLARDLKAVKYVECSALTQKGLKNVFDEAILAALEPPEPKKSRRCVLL

Kd [2]: ~83 nM
B1: PBD46, 46-residue peptide from PAK1 (PAK1 CRIB domain, residues 67-112) (peptide, UniProt Q13153 67-112, looked up)
chain: KKEKERPEISLPSDFEHTIHVGFDAVTGEFTGMPEQWARLLQTSNI
notes: The heat-purified and the conventionally purified sample are the same construct from the same host; also called PAK1-derived peptide; heat-purified PBD46; source: E. coli, as GST-PBD46
stoichiometry N [1]: 2

From PMC13344149, “One-step purification of a bioactive PAK1-derived peptide” (Analytical biochemistry, 2025)
